We go through 3 substances from patent US5693476.

For experiment [1], the target named is GST-syntaxin 1A (Syn1A11) point mutant 13 (four point mutations) (Schistosoma japonicum; rat). Put plainly: GST-syntaxin point mutant on glutathione beads, soluble ligand, Western blot densitometry, FIG. 5B.
The target in experiment [2] is GST-syntaxin 1A (Syn1A11) point mutant 45 (Schistosoma japonicum; rat). Described as above.
Experiment [3] concerns the target GST-syntaxin 1A (Syn1A11) point mutant M2: L205A, I209A (Schistosoma japonicum; rat). The description is as above.
In experiment [4] the target is GST-syntaxin 1A (Syn1A11) point mutant M6: A240V, V244A (Schistosoma japonicum; rat). The experiment is described as above.
Experiment [5] addresses GST-syntaxin 1A (Syn1A11) point mutant M4: V223A, Q226A (Schistosoma japonicum; rat). Described as above.
Experiment [6] addresses GST-syntaxin 1A (Syn1A11) point mutant M3: L212A, F216A (Schistosoma japonicum; rat). The description is as above.
The target of experiment [7] is GST-syntaxin 1A (Syn1A11) point mutant M5: I230A, I233A (Schistosoma japonicum; rat). Described as above.
For experiment [8], the target named is GST-syntaxin 1A (Syn1A11) point mutant 34 (Schistosoma japonicum; rat). The experiment is described as above.
Experiment [9] concerns the target GST-syntaxin 1A (Syn1A11) point mutant 12 (four point mutations) (Schistosoma japonicum; rat). The description is as above.
Experiment [10] deals with GST-syntaxin 1A (Syn1A11) point mutant M1: R198A, I202A (Schistosoma japonicum; rat). Described as above.
In experiment [11] the target is GST-syntaxin 1A deletion mutant Syn 1A17 (amino acids 4-240) (Schistosoma japonicum; rat). Put plainly: GST-syntaxin deletion mutant on glutathione beads, soluble ligand, Western blot densitometry; FIG. 4C row 5 from top, row label only in the figure (assigned by Table 1 order and paragraph 328). On the technique in general: In western blotting, separated proteins are transferred to a membrane and probed.

Experiment [12] concerns the target GST-syntaxin 1A deletion mutant Syn 1A6 (amino acids 4-190) (Schistosoma japonicum; rat). Put plainly: GST-syntaxin deletion mutant on glutathione beads, soluble ligand, Western blot densitometry; FIG. 4C row 3 from top, row label only in the figure (assigned by Table 1 order and paragraph 328).
Experiment [13] deals with GST-syntaxin 1A deletion mutant Syn 1A5 (amino acids 4-114) (Schistosoma japonicum; rat). Put plainly: GST-syntaxin deletion mutant on glutathione beads, soluble ligand, Western blot densitometry; FIG. 4C row 2 from top, row label only in the figure (assigned by Table 1 order and paragraph 328).
Experiment [14] concerns the target GST-syntaxin 1A cytoplasmic domain fusion protein (Syn 1A11, amino acids 4-266), immobilized on glutathione agarose beads (Schistosoma japonicum; rat). The experiment is described as follows: GST-syntaxin 1A (wild type) on glutathione beads, soluble ligand, Western blot densitometry, FIG. 5B.
The target in experiment [15] is GST-syntaxin 1A deletion mutant Syn 1A13 (amino acids 4-221) (Schistosoma japonicum; rat). Put plainly: GST-syntaxin deletion mutant on glutathione beads, soluble ligand, Western blot densitometry; FIG. 4C row 4 from top, row label only in the figure (assigned by Table 1 order and paragraph 328).
In experiment [16] the target is GST-syntaxin 1A deletion mutant Syn 1A4 (amino acids 8-76) (Schistosoma japonicum; rat). The experiment is described as follows: GST-syntaxin deletion mutant on glutathione beads, soluble ligand, Western blot densitometry; FIG. 4C row 1 from top, row label only in the figure (assigned by Table 1 order and paragraph 328).
Experiment [17] addresses GST-syntaxin 1A deletion mutant Syn 1A17 (amino acids 4-240) (Schistosoma japonicum; rat). Put plainly: 20S complex on GST-Syn 1A17 beads, ATP and Mg++, Western blot densitometry.
The target of experiment [18] is GST-syntaxin 1A cytoplasmic domain fusion protein (Syn 1A11, amino acids 4-266), immobilized on glutathione agarose beads (Schistosoma japonicum; rat). The experiment is described as follows: 20S complex assembly on GST-syntaxin beads with SNAP-25, VAMP, α-SNAP and NSF added together, ATPγS, 25° C., Western blot densitometry, FIG. 6A.
Experiment [19] addresses GST-syntaxin 1A deletion mutant Syn 1A13 (amino acids 4-221) (Schistosoma japonicum; rat). Put plainly: 20S complex assembly on GST-syntaxin beads with all four proteins together, ATPγS, 18° C. overnight MgCl2, Western blot densitometry, FIG. 6B.
In experiment [20] the target is GST-syntaxin 1A deletion mutant Syn 1A6 (amino acids 4-190) (Schistosoma japonicum; rat). The experiment is described as above.
Experiment [21] concerns the target GST-syntaxin 1A H3 domain construct Syn 1A16 (amino acids 191-266) (Schistosoma japonicum; rat). The description is as above.
Experiment [22] deals with GST-syntaxin 1A deletion mutant Syn 1A17 (amino acids 4-240) (Schistosoma japonicum; rat). The description is as above.
Experiment [23] addresses GST-syntaxin 1A cytoplasmic domain fusion protein (Syn 1A11, amino acids 4-266), immobilized on glutathione agarose beads (Schistosoma japonicum; rat). The description is as above.
Experiment [24] concerns the target GST-syntaxin 1A deletion mutant Syn 1A13 (amino acids 4-221) (Schistosoma japonicum; rat). Put plainly: 20S complex assembly on GST-syntaxin beads with all four proteins together, ATP, 18° C. overnight MgCl2, Western blot densitometry, FIG. 6B.
The target of experiment [25] is GST-syntaxin 1A deletion mutant Syn 1A6 (amino acids 4-190) (Schistosoma japonicum; rat). The experiment is described as above.
The target of experiment [26] is GST-syntaxin 1A H3 domain construct Syn 1A16 (amino acids 191-266) (Schistosoma japonicum; rat). Described as above.
Experiment [27] has as its target GST-syntaxin 1A deletion mutant Syn 1A17 (amino acids 4-240) (Schistosoma japonicum; rat). The experiment is described as above.
The target in experiment [28] is GST-syntaxin 1A cytoplasmic domain fusion protein (Syn 1A11, amino acids 4-266), immobilized on glutathione agarose beads (Schistosoma japonicum; rat). The description is as above.
Experiment [29] has the same target. Put plainly: 20S complex assembly on GST-syntaxin beads with SNAP-25, VAMP, α-SNAP and NSF added together, ATP, 25° C., Western blot densitometry, FIG. 6A.
The target of experiment [30] is GST-syntaxin 1A H3 domain construct Syn 1A16 (amino acids 191-266) (Schistosoma japonicum; rat). Put plainly: 20S complex on GST-Syn 1A16 beads, ATP and Mg++, Western blot densitometry.
The target of experiment [31] is VAMP 2 cytoplasmic domain (amino acids 1-94), recombinant, immobilized on the SPR flow cell (rat). Put plainly: SPR (BIAcore), VAMP 2 cytoplasmic domain immobilized; KD = kd/ka.
Sequence of VAMP 2 cytoplasmic domain (amino acids 1-94), recombinant, immobilized on the SPR flow cell (rat) (chain, as listed by the source): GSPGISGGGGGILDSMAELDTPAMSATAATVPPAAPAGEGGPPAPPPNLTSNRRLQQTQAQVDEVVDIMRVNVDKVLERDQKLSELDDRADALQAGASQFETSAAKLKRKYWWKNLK
Experiment [32] has the same target. Put plainly: SPR (BIAcore), VAMP 2 cytoplasmic domain immobilized.

Sequence of His-tagged NSF (N-ethylmaleimide-sensitive factor), soluble recombinant (P18708 whole entry): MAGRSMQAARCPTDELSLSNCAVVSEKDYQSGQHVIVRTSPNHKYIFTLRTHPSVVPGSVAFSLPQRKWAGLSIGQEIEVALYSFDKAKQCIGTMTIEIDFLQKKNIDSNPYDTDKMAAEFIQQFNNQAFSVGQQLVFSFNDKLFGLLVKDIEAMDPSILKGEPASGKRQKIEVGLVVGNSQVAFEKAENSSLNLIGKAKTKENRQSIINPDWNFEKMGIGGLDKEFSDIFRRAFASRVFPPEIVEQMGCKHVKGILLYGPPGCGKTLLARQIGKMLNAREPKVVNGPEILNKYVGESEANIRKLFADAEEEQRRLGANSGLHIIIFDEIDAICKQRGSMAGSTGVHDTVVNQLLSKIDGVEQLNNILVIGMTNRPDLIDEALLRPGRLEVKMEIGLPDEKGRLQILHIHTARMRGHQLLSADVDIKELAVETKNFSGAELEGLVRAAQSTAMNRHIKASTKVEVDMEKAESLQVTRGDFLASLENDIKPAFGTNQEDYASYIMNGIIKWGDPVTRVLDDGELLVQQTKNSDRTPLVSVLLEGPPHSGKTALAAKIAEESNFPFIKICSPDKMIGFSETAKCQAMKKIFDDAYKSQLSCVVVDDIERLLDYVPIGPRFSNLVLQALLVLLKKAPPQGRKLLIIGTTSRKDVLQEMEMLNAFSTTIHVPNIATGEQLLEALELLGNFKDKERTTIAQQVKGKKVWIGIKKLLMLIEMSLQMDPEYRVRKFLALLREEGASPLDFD
Sequence of syntaxin 1A carboxyl-terminal domain (amino acids 194-267), soluble recombinant (chain): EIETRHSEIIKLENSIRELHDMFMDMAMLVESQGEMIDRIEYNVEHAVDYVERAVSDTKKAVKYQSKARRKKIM

Consider “n-sec1, soluble recombinant (from UniProt P61765)”, for which the densitometry pixel value in experiment [1] came to 79 pixel value; in experiment [2], 7 pixel value; in experiment [3], 779 pixel value; in experiment [4], 687 pixel value; in experiment [5], 623 pixel value; in [6], 554 pixel value. The densitometry pixel value is 15 pixel value in experiment [7]; 353 pixel value in experiment [8]; 618 pixel value in [9]; 522 pixel value in experiment [10]; 2450 pixel value in experiment [11]; 0 pixel value in [12]. In addition, the densitometry pixel value in [13] stood at 0 pixel value; in [14] it was 1070 pixel value; in experiment [15] it was 84 pixel value; in experiment [16] it was 0 pixel value.

As for “His-tagged NSF (N-ethylmaleimide-sensitive factor), soluble recombinant (from UniProt P18708) (enzyme)”, the percent dissociated in the presence of ATP and Mg++ was determined as 30% in experiment [17] and 11% in experiment [30]. The densitometry pixel value in experiment [18] turned out to be 1590 pixel value; in [19] it was 46 pixel value; in experiment [20], 0 pixel value; in experiment [21] it was 319 pixel value; in experiment [22], 295 pixel value; in experiment [23], 163 pixel value. Further, the densitometry pixel value in experiment [24] came to 12 pixel value; in experiment [25], 0 pixel value; in experiment [26], 357 pixel value; in [27] it was 198 pixel value; in [28], 92 pixel value; in experiment [29], 362 pixel value.

With “syntaxin 1A carboxyl-terminal domain (amino acids 194-267), soluble recombinant”, the Kd (usually the free concentration of one partner at which half of the binding sites on the other are occupied at equilibrium, for simple one-to-one binding) in experiment [31] was determined as 4.7 µM. In [32], the koff (commonly the first-order rate constant of dissociation) came to 0.0022 s⁻¹ and the on-rate (kon) (usually the second-order rate constant of association) came out at 470 M⁻¹ s⁻¹.
